Tests used:
[1] = molecular target: HA-tagged LGR4, wild type (human, UniProt Q9BXB1-1 25-951); assay: cell-based or functional assay
[2] = molecular target: HA-tagged LGR4 nt-24 variant (-8 AA) (human, UniProt Q9BXB1-1 25-951, p.(His207_Arg214)); assay: cell-based or functional assay

TOP-Flash luciferase reporter of Wnt/β-catenin signaling in HEK293T cells transfected with LGR4, stimulated by RSPO1 (fold over basal) [1]: 6.1 fold
TOP-Flash luciferase reporter of Wnt/β-catenin signaling in HEK293T cells transfected with LGR4, stimulated by RSPO1 (fold over basal) [2]: 3.3 fold
B1: GFP-tagged RSPO1 (ligand, UniProt Q2MKA7 21-263, looked up)
chain: SRGIKGKRQRRISAEGSQACAKGCELCSEVNGCLKCSPKLFILLERNDIRQVGVCLPSCPPGYFDARNPDMNKCIKCKIEHCEACFSHNFCTKCKEGLYLHKGRCYPACPEGSSAANGTMECSSPAQCEMSEWSPWGPCSKKQQLCGFRRGSEERTRRVLHAPVGDHAACSDTKETRRCTVRRVPCPEGQKRRKGGQGRRENANRNLARKESKEAGAGSRRRKGQQQQQQQGTVGPLTSAGPA

From article PMC9927937, “Loss of LGR4/GPR48 causes severe neonatal salt wasting due to disrupted WNT signaling altering adrenal zonation” (The Journal of Clinical Investigation, 2023)
